{
  "source": "patent US20080146512A1",
  "about": "(published 2008)",
  "molecules": {"B1": {"name": "p16 (INK4a) (other, human, UniProt P42771 1-156, looked up)", "chain": "MEPAAGSSMEPSADWLATAAARGRVEEVRALLEAGALPNAPNSYGRRPIQVMMMGSARVAELLLLHGAEPNCADPATLTRPVHDAAREGFLDTLVVLHRAGARLDVRDAWGRLPVDLAEELGHRDVARYLRAAAGGTRGSNHARIDAAEGPSDIPD", "notes": "Endogenous protein co-immunoprecipitated with Cdk4 from SCC-1 cell homogenates and detected with a commercial p16 antibody"}},
  "key": {"[1]": {"target": "opioid growth factor receptor (OGFr) (human) (UniProt Q9NZT2)", "sequence (Q9NZT2 whole entry)": "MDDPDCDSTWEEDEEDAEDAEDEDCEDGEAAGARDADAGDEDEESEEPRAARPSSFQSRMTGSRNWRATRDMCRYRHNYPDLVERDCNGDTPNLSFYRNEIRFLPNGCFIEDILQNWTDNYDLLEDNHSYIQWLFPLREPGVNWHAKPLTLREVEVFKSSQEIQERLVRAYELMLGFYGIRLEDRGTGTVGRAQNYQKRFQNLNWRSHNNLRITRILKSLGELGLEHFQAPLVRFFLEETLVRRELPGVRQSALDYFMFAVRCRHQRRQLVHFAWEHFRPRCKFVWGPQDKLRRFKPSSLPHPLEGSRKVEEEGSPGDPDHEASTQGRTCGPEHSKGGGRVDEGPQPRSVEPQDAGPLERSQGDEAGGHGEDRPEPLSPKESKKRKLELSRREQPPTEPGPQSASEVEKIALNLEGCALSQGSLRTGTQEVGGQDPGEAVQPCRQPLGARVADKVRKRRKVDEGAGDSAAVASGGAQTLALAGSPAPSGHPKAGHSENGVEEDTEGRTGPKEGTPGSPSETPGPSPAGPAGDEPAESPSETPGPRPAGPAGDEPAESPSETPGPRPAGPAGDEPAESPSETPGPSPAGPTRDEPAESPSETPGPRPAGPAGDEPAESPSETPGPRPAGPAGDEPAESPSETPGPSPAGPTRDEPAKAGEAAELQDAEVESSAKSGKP", "experiment": "cell-based or functional assay"}, "Cdk4": {"target": "T1, Cdk4 (human, UniProt P11802 2-303)", "T1 construct": "Endogenous protein immunoprecipitated from SCC-1 cell homogenates with a commercial polyclonal Cdk4 antibody; also called Cdk4 kinase", "T1 sequence (P11802 2-303 limits assumed)": "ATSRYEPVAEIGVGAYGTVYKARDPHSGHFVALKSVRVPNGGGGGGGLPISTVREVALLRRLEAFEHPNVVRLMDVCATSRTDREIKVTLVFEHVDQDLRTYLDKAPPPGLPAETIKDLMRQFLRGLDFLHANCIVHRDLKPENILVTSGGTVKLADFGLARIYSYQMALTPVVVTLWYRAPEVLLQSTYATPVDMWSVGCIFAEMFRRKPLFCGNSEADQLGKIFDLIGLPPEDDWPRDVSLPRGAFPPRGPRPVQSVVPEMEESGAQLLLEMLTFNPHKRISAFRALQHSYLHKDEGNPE", "experiment": "Cdk4 immunoprecipitation from SCC-1 cell homogenates, Western blot with p16 antibodies", "source_text": "Cell cycle progression depends on both positive and negative regulators."}},
  "data": [
    {"molecule": "opioid growth factor (OGF), [Met5]-enkephalin (from UniProt P01210 100-104) (peptide)", "values": [
      {"measurement": "growth of control siRNA-treated SCC-1 cells (cell number at 96 h)", "setting": "[1]", "value": 46, "unit": "%"},
      {"measurement": "growth of wt SCC-1 cells (cell number at 96 h)", "setting": "[1]", "value": 29, "unit": "%"}
    ]},
    {"molecule": "B1", "values": [
      {"measurement": "binding result", "setting": "Cdk4", "value": "binds"}
    ]}
  ]
}
